Assay results from patent publication US8278415B2, “Dimeric high affinity EGFR constructs and uses thereof” (Centocor, Inc., priority 2006, dated 2012).

Assays:
EGFR = target: T1, EGFR (Homo sapiens, UniProt P00533); test: FACE (Fast Activated Cell-based ELISA) of EGFR phosphorylation
T1 construct: endogenous in cells

A431 cells = test: FACS of P190-MMB constructs or cetuximab on A431 cells; type: cell-based, human; conditions: excess EGF
sEGFR-MMB = target: T2, sEGFR-MMB (Homo sapiens, UniProt P00533); test: P190-MMB constructs, solid phase assays (BIAcore and ELISA) on immobilized sEGFR-MMB; type: binding
T2 construct: made in house; host or cells: HEK 293E
Excerpt: In contrast, 190-MMB as the 4316 construct, binds EGFR and the presence of excess EGF promotes its binding.

EGFR phosphorylation (receptor activation) (EGFR; absence of EGF): did not induce EGFR phosphorylation
binding in solid phase assays and cell-based FACS (sEGFR-MMB; comparison of linker lengths): best binder
B1: 4316: P190-MMB construct with the longest linker, Flex GGGGS, n 4, SEQ ID NO: 81 (protein)
chain: GGDPCTWEVWGRECLQGGGGSGGGGSGGGGSGGGGSCPPCPAPEAAGGPSVFLFPPKPKDTLMISRTPEVTCVVVDVSQEDPEVQFNWYVDGVEVHNAKTKPREEQFNSTYRVVSVLTVLHQDWLNGKEYKCKVSNKGLPSSIEKTISKAKGQPREPQVYTLPPSQEEMTKNQVSLTCLVKGFYPSDIAVEWESNGQPENNYKTTPPVLDSDGSFFLYSRLTVDKSRWQEGNVFSCSVMHEALHNHYTQKSLSLSLGK
interference with EGF activation of EGFR (EGFR): nor interfere with EGF activation of EGFR
effect of EGF on binding to A431 (A431 cells): enhanced binding
on-rate (sEGFR-MMB; BIAcore, no dissociation constant obtained): much more pronounced on-rate than the other constructs
